This is an account of results in PMC11674828.

The labels stand for the following.
B1: (Corynebacterium glutamicum ATCC 13032) (protein)
chain 1: MLRTILGSKIHRATVTQADLDYVG
chain 2: SVTIDADLVHAAGLIEGEKVAIVDITNGARLETYVIVGDAGTGNICINGAAAHLINPGDLVIIMSYLQATDAEAKAYEPKIVHVDADNRIVALGNDLAEALPGSGLLTSRSI
B2: (Thermus thermophilus HB8) (protein)
chain 1: MKRVMFHAKIHRATVTQADLHYVG
chain 2: SVTVDQDLLDAAGILPFEQVDIYDITNGARLTTYALPGERGSGVIGINGAAAHLVKPGDLVILVAYGVFDEEEARNLKPTVVLVDERNRILEVRKG
B3: (Escherichia coli K-12) (protein)
chain 1: MIRTMLQGKLHRVKVTHADLHYEG
chain 2: SCAIDQDFLDAAGILENEAIDIWNVTNGKRFSTYAIAAERGSRIISVNGAAAHCASVGDIVIIASFVTMPDEEARTWRPNVAYFEGDNEMKRTAKAIPVQVA

Substrate in this series: N[C@@H](CC(=O)O)C(=O)O
The experiment in a line: purified protein. To be noted: pH 8.0.
As a reminder, the Km is the substrate concentration at which the rate is half of its maximum. In general, kcat refers to the maximal rate divided by the concentration of active sites. Usually kcat/Km stands for the turnover number divided by the Michaelis constant. Take B1: the Km came out at 4.3 ± 0.2 mM, the kcat is 2.8 s⁻¹ and the kcat/Km turned out to be 650 M⁻¹ s⁻¹.

With B2, the Michaelis-Menten constant (Km) stood at 8.5 ± 0.1 mM, the kcat amounted to 2.2 s⁻¹ and the kcat/Km came out at 260 M⁻¹ s⁻¹.

For B3, the Km stood at 7.9 ± 0.1 mM, the kcat was determined as 1.4 s⁻¹ and the specificity constant (kcat/Km) was found to be 180 M⁻¹ s⁻¹.
